From the Immune Epitope Database (IEDB)
Values belong to the sequence of their own block, whether it stands above or below them.

Columns and labels:
HLA-A*02:16 [1] = test: IEDB peptide-MHC binding, purified MHC/competitive/fluorescence; filed as Kd, often an IC50 or EC50 that approximates it; ≥ and ≤ were set here for values at or beyond the usual limits of such assays; conditions: source organism: Desulfatibacillum alkenivorans AK-01
HLA-A*02:03 [2] = test: as above; conditions: source organism: Desulfatibacillum alkenivorans AK-01
HLA-A*69:01 = test: as above
HLA-A*02:12 [3] = test: as above; conditions: source organism: Desulfatibacillum alkenivorans AK-01
HLA-A*02:19 [4] = test: as above; conditions: source organism: Desulfatibacillum alkenivorans AK-01
HLA-A*02:01 [5] = test: as above
HLA-A*02:11 [6] = test: as above; conditions: source organism: Desulfatibacillum alkenivorans AK-01
HLA-A*02:06 = test: as above; conditions: source organism: Desulfatibacillum alkenivorans AK-01
HLA-A*03:01 [7] = test: IEDB peptide-MHC binding, purified MHC/direct/fluorescence; filed as Kd, often an IC50 or EC50 that approximates it; ≥ and ≤ were set here for values at or beyond the usual limits of such assays
HLA-A*02:16 [8] = test: as above
HLA-A*02:03 [9] = test: as above
HLA-A*68:02 = test: as above; conditions: source organism: Zaire ebolavirus
HLA-A*24:03 = test: as above; conditions: source organism: Zaire ebolavirus
HLA-A*02:12 [10] = test: as above
HLA-A*02:19 [11] = test: as above
HLA-A*02:11 [12] = test: as above
HLA-B*15:01 [13] = test: as above; conditions: source organism: Zaire ebolavirus
HLA-B*58:01 = test: as above; conditions: source organism: Zaire ebolavirus
HLA-B*18:01 = test: IEDB peptide-MHC binding, purified MHC/competitive/fluorescence; filed as Kd, often an IC50 or EC50 that approximates it; ≥ and ≤ were set here for values at or beyond the usual limits of such assays
HLA-A*26:01 = test: as above
HLA-B*15:17 = test: as above; conditions: source organism: Zaire ebolavirus
HLA-B*39:01 = test: as above
HLA-B*57:01 = test: as above
HLA-B*51:01 = test: as above
HLA-B*27:03 = test: as above
HLA-B*46:01 = test: as above
HLA-A*02:01 [14] = test: IEDB peptide-MHC binding, purified MHC/competitive/fluorescence; ≥ and ≤ were set here for values at or beyond the usual limits of such assays
HLA-B*15:01 [15] = test: as above
HLA-A*24:02 = test: as above; conditions: source organism: Zaire ebolavirus
HLA-A*03:01 [16] = test: as above
HLA-A*11:01 = test: as above
HLA-B*07:02 = test: as above
HLA-A*01:01 = test: as above
HLA-B*15:01 [17] = test: IEDB peptide-MHC binding, purified MHC/competitive/fluorescence; filed as Kd, often an IC50 or EC50 that approximates it; ≥ and ≤ were set here for values at or beyond the usual limits of such assays; conditions: source organism: Araucaria virus
HLA-B*08:01 [18] = test: as above
HLA-B*08:01 [19] = test: IEDB peptide-MHC binding, purified MHC/competitive/fluorescence; ≥ and ≤ were set here for values at or beyond the usual limits of such assays; conditions: source organism: Zaire ebolavirus
[20] = source organism: Desulfatibacillum alkenivorans AK-01
[21] = source organism: Zaire ebolavirus
[22] = source organism: Sudan ebolavirus
[23] = source organism: Vaccinia virus Copenhagen
[24] = source organism: Araucaria virus

Kd (HLA-A*02:16 [1]): 0.00177 µM | Kd (HLA-A*02:03 [2]): 0.00229 µM | Kd (HLA-A*69:01; [20]): ≥ 20 µM | Kd (HLA-A*02:12 [3]): 0.0235 µM | Kd (HLA-A*02:19 [4]): 0.117 µM | Kd (HLA-A*02:01 [5]; [20]): 0.384 µM | Kd (HLA-A*02:11 [6]): 0.0013 µM | Kd (HLA-A*02:06): 0.00192 µM
Sequence: KLGKAGYVV

Sequence: GLIQYPTAW
Kd (HLA-A*03:01 [7]; [21]): ≥ 20 µM | Kd (HLA-A*02:16 [8]; [21]): ≥ 20 µM | Kd (HLA-A*02:03 [9]; [21]): ≥ 20 µM | Kd (HLA-A*68:02): ≥ 20 µM | Kd (HLA-A*24:03): ≥ 20 µM | Kd (HLA-A*02:12 [10]; [21]): ≥ 20 µM | Kd (HLA-A*02:19 [11]; [21]): ≥ 20 µM | Kd (HLA-A*02:11 [12]; [21]): ≥ 20 µM | Kd (HLA-B*15:01 [13]): 2.2 µM | Kd (HLA-B*58:01): 0.5 µM | Kd (HLA-B*18:01; [21]): ≥ 20 µM | Kd (HLA-A*26:01; [21]): ≥ 20 µM | Kd (HLA-B*15:17): ≥ 20 µM | Kd (HLA-B*39:01; [21]): ≥ 20 µM | Kd (HLA-A*69:01; [21]): ≥ 20 µM | Kd (HLA-B*57:01; [21]): ≥ 20 µM | Kd (HLA-A*02:01 [5]; [21]): ≥ 20 µM | Kd (HLA-B*51:01; [21]): ≥ 20 µM | Kd (HLA-B*27:03; [21]): ≥ 20 µM | Kd (HLA-B*46:01; [21]): ≥ 20 µM | IC50 (HLA-A*02:01 [14]; [21]): 3.1 µM | IC50 (HLA-B*15:01 [15]; [21]): ≥ 109 µM | IC50 (HLA-A*24:02): 13.2 µM

Sequence: VIFRLMRTN
IC50 (HLA-A*03:01 [16]; [21]): 7.47 µM | IC50 (HLA-A*11:01; [21]): ≥ 90.6 µM | IC50 (HLA-A*02:01 [14]; [21]): 42.7 µM | IC50 (HLA-B*15:01 [15]; [21]): ≥ 175 µM | IC50 (HLA-A*24:02): ≥ 150 µM

Sequence: RSRRQTNTK
IC50 (HLA-A*03:01 [16]; [22]): 2.27 µM | IC50 (HLA-A*11:01; [22]): 1.47 µM | IC50 (HLA-B*07:02; [22]): 8.84 µM

Sequence: AIITPIVFY
IC50 (HLA-A*03:01 [16]; [23]): ≥ 153 µM | IC50 (HLA-A*11:01; [23]): 0.941 µM | IC50 (HLA-A*02:01 [14]; [23]): ≥ 122 µM | IC50 (HLA-B*15:01 [15]; [23]): 6.37 µM

Sequence: VTLDGQQFY
IC50 (HLA-A*03:01 [16]; [21]): ≥ 105 µM | IC50 (HLA-A*01:01; [21]): 3.88 µM | IC50 (HLA-A*11:01; [21]): 4.92 µM | IC50 (HLA-A*02:01 [14]; [21]): ≥ 226 µM | IC50 (HLA-B*15:01 [15]; [21]): 53.6 µM | IC50 (HLA-A*24:02): ≥ 192 µM

Sequence: WPVMNHKNK
IC50 (HLA-A*03:01 [16]; [21]): ≥ 180 µM | IC50 (HLA-A*11:01; [21]): ≥ 185 µM | IC50 (HLA-B*07:02; [21]): 53.1 µM

Sequence: ELRQLAQSL
Kd (HLA-A*03:01 [7]; source organism: Choclo virus): ≥ 20 µM | Kd (HLA-A*02:16 [8]; source organism: Choclo virus): ≥ 20 µM | Kd (HLA-A*02:03 [9]; source organism: Choclo virus): ≥ 20 µM | Kd (HLA-A*02:12 [10]; source organism: Choclo virus): ≥ 20 µM | Kd (HLA-A*02:19 [11]; source organism: Choclo virus): ≥ 20 µM | Kd (HLA-A*02:11 [12]; source organism: Choclo virus): ≥ 20 µM | Kd (HLA-B*18:01; [24]): ≥ 20 µM | Kd (HLA-A*26:01; [24]): ≥ 20 µM | Kd (HLA-B*39:01; [24]): ≥ 20 µM | Kd (HLA-A*69:01; [24]): ≥ 20 µM | Kd (HLA-B*57:01; [24]): ≥ 20 µM | Kd (HLA-A*02:01 [5]; [24]): ≥ 20 µM | Kd (HLA-B*51:01; [24]): ≥ 20 µM | Kd (HLA-B*15:01 [17]): ≥ 20 µM | Kd (HLA-B*27:03; [24]): ≥ 20 µM | Kd (HLA-B*46:01; [24]): ≥ 20 µM | Kd (HLA-B*08:01 [18]; [24]): 0.156 µM

Sequence: KLERRMENL
Kd (HLA-B*08:01 [18]; source organism: Influenza A virus (A/Osaka/930/88(H1N1))): ≥ 20 µM

Sequence: STSPRMLTP
IC50 (HLA-A*11:01; [21]): 44.1 µM | IC50 (HLA-B*07:02; [21]): ≥ 168 µM | IC50 (HLA-A*24:02): 69.9 µM

Sequence: EGHGFRFEV
IC50 (HLA-A*02:01 [14]; [21]): 28.1 µM | IC50 (HLA-B*08:01 [19]): 69.3 µM

Sequence: GQHIEGRQT
IC50 (HLA-B*15:01 [15]; [21]): ≥ 148 µM

Sequence: MVIFRLMRT
IC50 (HLA-A*03:01 [16]; [21]): ≥ 96.6 µM | IC50 (HLA-A*11:01; [21]): ≥ 177 µM | IC50 (HLA-A*02:01 [14]; [21]): 0.478 µM | IC50 (HLA-B*08:01 [19]): ≥ 77.6 µM

Sequence: LFQRTFSIP
IC50 (HLA-A*02:01 [14]; [21]): ≥ 72.9 µM | IC50 (HLA-A*24:02): 1.04 µM | IC50 (HLA-B*08:01 [19]): ≥ 270 µM

Sequence: ISDRATRKY
IC50 (HLA-A*03:01 [16]; [22]): 38.6 µM | IC50 (HLA-A*01:01; [22]): 1.89 µM | IC50 (HLA-A*11:01; [22]): 18.8 µM | IC50 (HLA-B*15:01 [15]; [22]): 57.6 µM
